Data reported in article PMC13036491, “RNA binding protein Musashi1 interacts with the viral genomic RNA and restricts SARS-CoV-2 infection by repressing translation”.

Target: GST-Msi1 (Homo sapiens, UniProt O43347 1-362)
Assay: EMSA; GST-Msi1 ~1.5-9 uM; dose-dependent
Conditions: protein: recombinant; tags: N-terminal GST (pGEX 5X-2); label: fluorescein-12-UTP

GST-Msi1, sequence (O43347 whole entry): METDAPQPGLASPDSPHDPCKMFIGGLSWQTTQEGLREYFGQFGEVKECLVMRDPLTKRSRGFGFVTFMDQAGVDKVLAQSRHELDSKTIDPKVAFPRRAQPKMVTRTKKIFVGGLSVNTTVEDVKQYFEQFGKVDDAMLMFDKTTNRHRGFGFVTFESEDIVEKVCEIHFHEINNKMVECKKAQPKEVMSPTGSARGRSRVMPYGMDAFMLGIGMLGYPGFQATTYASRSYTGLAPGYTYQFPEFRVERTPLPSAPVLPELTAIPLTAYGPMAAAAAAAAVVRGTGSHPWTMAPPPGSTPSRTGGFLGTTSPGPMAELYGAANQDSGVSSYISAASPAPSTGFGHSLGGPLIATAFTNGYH

Question: Does GGGAUUUUAGUAGUGCUAUCCCCA (ssRNA) [M2 RNA (HVR MBE)] bind?
Answer: binds
